Results as given in US20200270588A1, “GLUCOSYL TRANSFERASE POLYPEPTIDES AND METHODS OF USE” (Syngenta Participations AG, priority 2017, published 2020).
Numbering of substitutions follows the chain as printed. Names and notes keep the numbering of the source.

Key:
[1] = UDP luminescence plate assay of E. coli extracts, mutants within SEQ ID No: 17, 2 mM metribuzin; type: biochemical, Zea mays; conditions: for metribuzin signal relative to the SEQ ID No:17 control (first parentheses) / ratio of metribuzin to DMSO signal (second parentheses) / SIGNAL: metribuzin signal of mutant divided by the signal of the SEQ ID No. 17 control / luminescence signal observed with 2 mM metribuzin: 2 mM metribuzin; for metribuzin signal relative to the SEQ ID No:17 control (first parentheses) / ratio of metribuzin to DMSO signal (second parentheses): additional mutation in SEQ ID No: 17; for SIGNAL: metribuzin signal of mutant divided by the signal of the SEQ ID No. 17 control: relative to SEQ ID No: 17 control; for luminescence signal in the DMSO control / luminescence signal observed with 2 mM metribuzin: additional mutations within SEQ ID No: 17; for luminescence signal in the DMSO control: DMSO in place of metribuzin; for luminescence signal observed with 2 mM metribuzin: control = SEQ ID No: 17
Procedure: Activities observed with metribuzin were generally lower in magnitude than seen with herbicide V in the previous examples. For example, in one plate assay run with 2 mM metribuzin using 5 ul of diluted extract of plate-grown BL21DE3 cells expressing w/t bx9 and assayed for 40 minutes (as described in Example 2) the UDP-Glo luminescence signal was ˜3.4 E6 as compared with ˜2.3E6 in the DMSO control and ˜1.7E6 in the H24A null mutant control. […] It was therefore important to assess potential improvements in the metribuzin activity of the various mutants relative to the wild type bx9 enzyme based not only on the H24A null activity control but also based upon controls with DMSO in place of metribuzin acceptor substrate. In some plate assays (using more dilute extracts) the metribuzin signals from the w/t enzyme was the same or barely greater than the DMSO control. Additionally, some mutations gave an increase in the ‘background’ UDP-glucose hydrolysis activity with just DMSO present that was the same or similar to the magnitude of the increase in signal seen with metribuzin. In these instances it is therefore uncertain from just this UDP-Glo assay method whether the specific metribuzin signal (glucosylation of metribuzin) is improved or not i.e. the signal seen with metribuzin may or may not all or to a large part be attributable to increased background hydrolysis). […] Thus the ratio of the metribuzin to DMSO signal as well as the increase in signal relative to the w/t bx9 is used to help distinguish those mutations most likely to offer the highest activity to metribuzin. A follow up assay monitored by, for example, LC MS is one method to distinguish these cases more quantitatively. The tables below summarise the results from two different sets of luminescence plate assays to detect single mutations giving improvements in the magnitude of the signal with metribuzin relative to w/t bx9 and/or the apparent specificity for metribuzin as measured by the deviation of the ratio of metribuzin to DMSO control activity from the bx9 w/t value of around unity.
A further separate screen was carried out to explore a library of additional mutations at various positions within the context of SEQ ID No: 17 for improved metribuzin activity. These were assayed, assessed and scored as above. […] These were S75K (2.5)(1.25), A236G (4.0)(1.15), A433V (3.3)(9.0) and R449C (1.8)(1.2).
A yet further and more comprehensive screen was carried out to explore saturation mutagenesis at all remaining amino acid positions within the context of SEQ ID No:17 for improved metribuzin activity. Again these were assayed, assessed and scored as above and the results of (out of the thousands screened) of the subset that were of interest are summarized in Table 16.

[2] = UDP luminescence plate assay of E. coli extracts, mutants of SEQ ID No: 1, 2 mM metribuzin; type: biochemical, Zea mays; conditions: for RATIO of the metribuzin signal to the DMSO signal: 2 mM metribuzin vs DMSO control, same mutant; for SIGNAL: metribuzin signal of mutant divided by the signal of w/t bx9 / luminescence signal observed with 2 mM metribuzin: 2 mM metribuzin; for SIGNAL: metribuzin signal of mutant divided by the signal of w/t bx9: relative to bx9 w/t; for luminescence signal in the DMSO control: mutants of SEQ ID No: 1, DMSO in place of metribuzin (background UDP-glucose hydrolysis); for luminescence signal observed with 2 mM metribuzin: mutants of SEQ ID No: 1 in E. coli extracts, UDP luminescence
Procedure: Optionally plate assays are stopped with brief heating to 95 C before returning to ice and addition of UDP-Glo detection reagent followed by incubation at lab temperature. […] In addition a UDP standard curve is run alongside each set of plate tests.
Assays were carried out on extracts of E. coli BL21 DE3 expressing the various C-terminally his-tagged library variants of SEQ ID NO:1 at the amino acid positions listed in Table 11 as described in Example 2 except, in this case, with 2 mM metribuzin in place of herbicide V.
Thus the ratio of the metribuzin to DMSO signal as well as the increase in signal relative to the w/t bx9 is used to help distinguish those mutations most likely to offer the highest activity to metribuzin. A follow up assay monitored by, for example, LC MS is one method to distinguish these cases more quantitatively.

B1: S75K: additional mutation in SEQ ID No: 17 (protein)
chain: MASSRTGAGAGGRVVVFPFPFQGHFNPVMRLARALHARGLAITVFHSGALDPADYPADYRFVPVTVEADPKLLAKEDIAAIVTTLNASCDAPFRARLSALLAAEGRDSVRCVFTDVVWNAVLTASSDLGVPALGMMTASAASLRDYMAYRTLIDKGYLPVKEERKEDPVPELPPYLVKDLLRVDTSDLEEFAELLARTVTAARRASGLIFNTFPLIETDTLAEIHKALSVPVFAVAPLNKLVPTATASLHGVVQADRGCLQWLDTQQPGSVLYVSFGSFAAMDPHEFVELAWGLADSKRPFVWVVRPNLIRGFESGALPDGVEDEVRGRGIVVKWAPQEEVLAHPAVGGFLTHNGWNSTVEAISEGVPMVCCPRHGDQFGNMRYVCDVWKVGTELVGEQLERGQVKAAIDRLFGTKEGEEIKERMKEFKIAAAKGIGIGVDVDETASPRTDLTDLVDLIKSF
modifications: Mutated Zea mays Bx9 protein sequence
metribuzin signal relative to the SEQ ID No:17 control (first parentheses) [1]: 2.5 | ratio of metribuzin to DMSO signal (second parentheses) [1]: 1.25

B2: A236G: additional mutation in SEQ ID No: 17 (protein)
chain: B1 chain with K75S, A236G
modifications: Mutated Zea mays Bx9 protein sequence
metribuzin signal relative to the SEQ ID No:17 control (first parentheses) [1]: 4.0 | ratio of metribuzin to DMSO signal (second parentheses) [1]: 1.15

B3: A433V: additional mutation in SEQ ID No: 17 (protein)
chain: B1 chain with K75S, A433V
modifications: Mutated Zea mays Bx9 protein sequence
metribuzin signal relative to the SEQ ID No:17 control (first parentheses) [1]: 3.3 | ratio of metribuzin to DMSO signal (second parentheses) [1]: 9.0

B4: R449C: additional mutation in SEQ ID No: 17 (protein)
chain: B1 chain with K75S, R449C
modifications: Mutated Zea mays Bx9 protein sequence
metribuzin signal relative to the SEQ ID No:17 control (first parentheses) [1]: 1.8 | ratio of metribuzin to DMSO signal (second parentheses) [1]: 1.2

B5: V360M: additional mutation in SEQ ID No: 17 (protein)
chain: B1 chain with K75S, V360M
modifications: Mutated Zea mays Bx9 protein sequence
metribuzin signal relative to the SEQ ID No:17 control (first parentheses) [1]: 2.0 | ratio of metribuzin to DMSO signal (second parentheses) [1]: 1.28 | SIGNAL: metribuzin signal of mutant divided by the signal of the SEQ ID No. 17 control [1]: 2.02 | luminescence signal in the DMSO control [1]: 2.88E+06 | luminescence signal observed with 2 mM metribuzin [1]: 3.68E+06

B6: S364L: additional mutation in SEQ ID No: 17 (protein)
chain: B1 chain with K75S, S364L
modifications: Mutated Zea mays Bx9 protein sequence
RATIO of the metribuzin signal to the DMSO signal ([1]; 2 mM metribuzin vs DMSO control, same mutant): 1.19 | metribuzin signal relative to the SEQ ID No:17 control (first parentheses) [1]: 3.3 | ratio of metribuzin to DMSO signal (second parentheses) [1]: 1.20 | SIGNAL: metribuzin signal of mutant divided by the signal of the SEQ ID No. 17 control [1]: 3.29 | luminescence signal in the DMSO control [1]: 5.04E+06 | luminescence signal observed with 2 mM metribuzin [1]: 6.00E+06

B7: G366H: additional mutation in SEQ ID No: 17 (protein)
chain: B1 chain with K75S, G366H
modifications: Mutated Zea mays Bx9 protein sequence
metribuzin signal relative to the SEQ ID No:17 control (first parentheses) [1]: 3.4 | ratio of metribuzin to DMSO signal (second parentheses) [1]: 1.34 | SIGNAL: metribuzin signal of mutant divided by the signal of the SEQ ID No. 17 control [1]: 3.38 | luminescence signal in the DMSO control [1]: 4.62E+06 | luminescence signal observed with 2 mM metribuzin [1]: 6.17E+06

B8: H375Y: additional mutation in SEQ ID No: 17 (protein)
chain: B1 chain with K75S, H375Y
modifications: Mutated Zea mays Bx9 protein sequence
metribuzin signal relative to the SEQ ID No:17 control (first parentheses) [1]: 3.8 | ratio of metribuzin to DMSO signal (second parentheses) [1]: 2.33 | SIGNAL: metribuzin signal of mutant divided by the signal of the SEQ ID No. 17 control [1]: 3.80 | luminescence signal in the DMSO control [1]: 2.97E+06 | luminescence signal observed with 2 mM metribuzin [1]: 6.93E+06

B9: G418Y: additional mutation in SEQ ID No: 17 (protein)
chain: B1 chain with K75S, G418Y
modifications: Mutated Zea mays Bx9 protein sequence
metribuzin signal relative to the SEQ ID No:17 control (first parentheses) [1]: 3.1 | ratio of metribuzin to DMSO signal (second parentheses) [1]: 1.47 | SIGNAL: metribuzin signal of mutant divided by the signal of the SEQ ID No. 17 control [1]: 3.11 | luminescence signal in the DMSO control [1]: 3.86E+06 | luminescence signal observed with 2 mM metribuzin [1]: 5.67E+06

B10: R424P: additional mutation in SEQ ID No: 17 (protein)
chain: B1 chain with K75S, R424P
modifications: Mutated Zea mays Bx9 protein sequence
metribuzin signal relative to the SEQ ID No:17 control (first parentheses) [1]: 2.5 | ratio of metribuzin to DMSO signal (second parentheses) [1]: 1.14 | SIGNAL: metribuzin signal of mutant divided by the signal of the SEQ ID No. 17 control [1]: 2.51 | luminescence signal in the DMSO control [1]: 4.02E+06 | luminescence signal observed with 2 mM metribuzin [1]: 4.58E+06

B11: M425F: additional mutation in SEQ ID No: 17 (protein)
chain: B1 chain with K75S, M425F
modifications: Mutated Zea mays Bx9 protein sequence
metribuzin signal relative to the SEQ ID No:17 control (first parentheses) [1]: 4.1 | ratio of metribuzin to DMSO signal (second parentheses) [1]: 1.96 | SIGNAL: metribuzin signal of mutant divided by the signal of the SEQ ID No. 17 control [1]: 4.13 | luminescence signal in the DMSO control [1]: 3.84E+06 | luminescence signal observed with 2 mM metribuzin [1]: 7.53E+06

B12: K429S: additional mutation in SEQ ID No: 17 (protein)
chain: B1 chain with K75S, K429S
modifications: Mutated Zea mays Bx9 protein sequence
metribuzin signal relative to the SEQ ID No:17 control (first parentheses) [1]: 2.4 | ratio of metribuzin to DMSO signal (second parentheses) [1]: 1.30 | SIGNAL: metribuzin signal of mutant divided by the signal of the SEQ ID No. 17 control [1]: 2.38 | luminescence signal in the DMSO control [1]: 3.34E+06 | luminescence signal observed with 2 mM metribuzin [1]: 4.34E+06

B13: A334P (protein)
chain: B1 chain with K75S, V117S, F279M, K334P
modifications: Zea mays
RATIO of the metribuzin signal to the DMSO signal [2]: 0.88 | SIGNAL: metribuzin signal of mutant divided by the signal of w/t bx9 [2]: 1.24 | luminescence signal in the DMSO control [2]: 3.97E+05 | luminescence signal observed with 2 mM metribuzin [2]: 3.48E+05

B14: A334I (protein)
chain: B1 chain with K75S, V117S, F279M, K334I
modifications: Zea mays
RATIO of the metribuzin signal to the DMSO signal [2]: 0.89 | SIGNAL: metribuzin signal of mutant divided by the signal of w/t bx9 [2]: 1.05 | luminescence signal in the DMSO control [2]: 3.29E+05 | luminescence signal observed with 2 mM metribuzin [2]: 2.94E+05

B15: C372L (protein)
chain: B1 chain with K75S, V117S, F279M, K334A, C372L
modifications: Zea mays
RATIO of the metribuzin signal to the DMSO signal [2]: 1.06 | SIGNAL: metribuzin signal of mutant divided by the signal of w/t bx9 [2]: 1.22 | luminescence signal in the DMSO control [2]: 3.22E+05 | luminescence signal observed with 2 mM metribuzin [2]: 3.41E+05

B16: H24A (protein)
chain: B1 chain with H24A, K75S, V117S, F279M, K334A
modifications: Zea mays
luminescence signal in the DMSO control [2]: 2.60E+05 | luminescence signal observed with 2 mM metribuzin [2]: 2.39E+05
